Laboratory results from article PMC11094003, “Chemical manipulation of an activation/inhibition switch in the nuclear receptor PXR” (Nature Communications, 2024).

Tests used:
[1] = molecular target: T1, L428V mutant of human pregnane X receptor ligand binding domain (residues 130-434) (human, UniProt O75469 130-434, L428V); assay: crystal structure; PXR L428V LBD tethered to the SRC-1 peptide on one chain, apo and with the antagonist SJPYT-331; 50 mM Bis-Tris pH 6-7, 10-20% MPD, 20 °C; conditions: both partners purified
T1 construct: As m1, one polypeptide with the SRC-1 peptide: His6 - PXR 130-434 (L428V) - SGGSGG linker - SRC-1 678-710; also called PXR^L428V LBD; source: E. coli BL21(DE3), purified (HisTrap, HiTrap SP flow-through, Superdex 200 SEC)
T1 sequence (looked up): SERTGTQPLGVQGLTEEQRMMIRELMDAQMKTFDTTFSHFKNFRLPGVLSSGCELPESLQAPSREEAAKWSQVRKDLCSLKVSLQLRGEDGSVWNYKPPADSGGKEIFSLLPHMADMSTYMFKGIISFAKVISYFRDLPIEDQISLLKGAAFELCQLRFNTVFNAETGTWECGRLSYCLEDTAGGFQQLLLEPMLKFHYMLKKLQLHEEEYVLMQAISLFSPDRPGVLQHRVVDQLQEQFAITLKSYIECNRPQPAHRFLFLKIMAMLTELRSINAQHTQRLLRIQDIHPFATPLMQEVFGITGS

[2] = molecular target: T2, human pregnane X receptor ligand binding domain (residues 130-434) (human, UniProt O75469 130-434); assay: crystal structure; PXR LBD tethered to the SRC-1 peptide on one chain, co-crystallised with an antagonist (SJPYT-310, SJPYT-278, SJPYT-312 or SJPYT-331; 2:1 ligand to protein); 50 mM Bis-Tris pH 6-7, 10-20% MPD, 20 °C; conditions: both partners purified
T2 construct: In the crystallised construct this domain and the SRC-1 peptide are one polypeptide: His6 - PXR 130-434 - SGGSGG linker - SRC-1 678-710; Written here as a molecule of its own for the pair PXR LBD / SRC-1; also called PXR LBD; WT PXR LBD; source: E. coli BL21(DE3), purified (HisTrap, HiTrap SP flow-through, Superdex 200 SEC)
T2 sequence (looked up): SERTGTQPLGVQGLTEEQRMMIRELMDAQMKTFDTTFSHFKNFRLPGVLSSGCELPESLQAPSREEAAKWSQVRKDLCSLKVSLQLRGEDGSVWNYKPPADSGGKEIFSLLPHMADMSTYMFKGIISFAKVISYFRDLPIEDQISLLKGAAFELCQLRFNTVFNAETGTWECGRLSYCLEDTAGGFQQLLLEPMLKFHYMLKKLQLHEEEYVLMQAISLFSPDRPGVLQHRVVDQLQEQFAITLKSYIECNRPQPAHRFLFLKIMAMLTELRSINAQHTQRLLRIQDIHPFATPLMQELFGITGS

B1: SRC-1 peptide (residues 678-710), 33 amino acids (peptide, UniProt Q15788 678-710, looked up)
chain: SSHSSLTERHKILHRLLQEGSPSDITTLSVEPD
notes: Not a free peptide: tethered to the C-terminus of PXR LBD (m1 or m3) through an SGGSGG linker on one chain; also called tethered SRC-1 peptide
binding result [1]: binds
binding result [2]: binds
